# Experimental data taken from PMC10942606.
# Positions count from the first letter of the chain named.
# T1: Pcf1-KER*;Pcf2;Pcf3 (Schizosaccharomyces …, UniProt Q1MTN9;O13985;Q9Y825 1-544;1-512;1-408, R147E;K150E;K154E;R161E;K168E||)
# T1 sequence 1: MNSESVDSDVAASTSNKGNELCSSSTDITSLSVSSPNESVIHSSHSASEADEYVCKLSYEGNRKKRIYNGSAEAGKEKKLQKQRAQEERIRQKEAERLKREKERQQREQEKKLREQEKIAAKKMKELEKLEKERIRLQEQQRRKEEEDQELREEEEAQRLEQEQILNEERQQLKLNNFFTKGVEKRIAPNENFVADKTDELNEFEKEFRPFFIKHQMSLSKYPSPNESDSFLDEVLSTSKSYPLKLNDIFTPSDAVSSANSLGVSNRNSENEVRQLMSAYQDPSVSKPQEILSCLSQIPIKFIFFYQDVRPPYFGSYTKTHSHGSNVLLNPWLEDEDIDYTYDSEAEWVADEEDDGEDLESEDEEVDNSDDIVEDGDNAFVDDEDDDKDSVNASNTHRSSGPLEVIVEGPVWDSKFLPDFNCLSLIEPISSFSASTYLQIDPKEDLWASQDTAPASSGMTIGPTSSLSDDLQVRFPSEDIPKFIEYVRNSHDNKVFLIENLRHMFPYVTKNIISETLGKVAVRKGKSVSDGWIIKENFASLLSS
# T1 sequence 2: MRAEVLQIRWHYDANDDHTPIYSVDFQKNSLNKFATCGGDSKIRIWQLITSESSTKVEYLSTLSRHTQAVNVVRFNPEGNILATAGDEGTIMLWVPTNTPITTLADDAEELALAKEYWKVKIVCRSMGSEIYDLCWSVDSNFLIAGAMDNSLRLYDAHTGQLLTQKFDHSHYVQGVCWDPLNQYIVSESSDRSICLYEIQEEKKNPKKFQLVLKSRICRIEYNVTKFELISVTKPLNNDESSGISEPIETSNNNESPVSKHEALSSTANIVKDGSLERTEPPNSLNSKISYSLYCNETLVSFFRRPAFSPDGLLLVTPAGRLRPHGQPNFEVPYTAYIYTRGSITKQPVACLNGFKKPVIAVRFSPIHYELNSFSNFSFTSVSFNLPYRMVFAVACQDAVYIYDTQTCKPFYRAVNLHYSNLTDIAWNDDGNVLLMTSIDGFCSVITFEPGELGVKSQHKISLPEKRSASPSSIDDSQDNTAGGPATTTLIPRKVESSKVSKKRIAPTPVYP
# T1 sequence 3: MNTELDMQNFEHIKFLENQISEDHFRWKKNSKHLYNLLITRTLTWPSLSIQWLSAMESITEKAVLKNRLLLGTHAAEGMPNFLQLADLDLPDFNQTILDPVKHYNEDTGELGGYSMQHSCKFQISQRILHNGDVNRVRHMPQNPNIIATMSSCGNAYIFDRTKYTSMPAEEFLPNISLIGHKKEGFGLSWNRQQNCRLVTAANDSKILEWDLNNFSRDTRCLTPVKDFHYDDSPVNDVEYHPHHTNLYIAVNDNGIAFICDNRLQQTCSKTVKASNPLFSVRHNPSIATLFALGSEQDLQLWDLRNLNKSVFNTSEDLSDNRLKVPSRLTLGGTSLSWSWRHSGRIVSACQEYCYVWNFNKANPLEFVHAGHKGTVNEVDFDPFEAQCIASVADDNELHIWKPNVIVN
# T2: Pcf1 WT;Pcf2;Pcf3 (Schizosaccharomyces …, UniProt Q1MTN9;O13985;Q9Y825 1-544;1-512;1-408, ||)
# T2 sequence 1: T1 sequence 1 with E147R, E150K, E154K, E161R, E168K
# T2 sequence 2: T1 sequence 2
# T2 sequence 3: T1 sequence 3
# T3: Pcf1_KER (Schizosaccharomyces pombe, UniProt Q1MTN9 56-170)
# T3 sequence: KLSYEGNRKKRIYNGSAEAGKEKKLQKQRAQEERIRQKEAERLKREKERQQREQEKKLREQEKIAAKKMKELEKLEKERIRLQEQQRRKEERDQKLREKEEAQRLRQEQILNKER
# T4: Pcf1_KER-PIP (Schizosaccharomyces pombe, UniProt Q1MTN9 56-185)
# T4 sequence: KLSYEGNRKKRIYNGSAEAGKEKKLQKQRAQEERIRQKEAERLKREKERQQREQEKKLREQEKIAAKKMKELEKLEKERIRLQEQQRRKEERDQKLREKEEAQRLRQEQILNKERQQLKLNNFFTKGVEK
# B1: 40 bp dsDNA, Alexa488 (dsDNA)
# DNA 1: ATCAATATCCACCTGCAGATACTACCAAAAGTGTATTTGG
# DNA 2: CCAAATACACTTTTGGTAGTATCTGCAGGTGGATATTGAT
# Tests used:
# Assay in all cases: MST
# Pcf1-KER*;Pcf2;Pcf3 = target: T1, Pcf1-KER*;Pcf2;Pcf3
# Pcf1 WT;Pcf2;Pcf3 = target: T2, Pcf1 WT;Pcf2;Pcf3
# Pcf1_KER = target: T3, Pcf1_KER
# Pcf1_KER-PIP = target: T4, Pcf1_KER-PIP
binder,measurement,setting,value
B1,apparent K (half saturation),Pcf1-KER*;Pcf2;Pcf3,2800 ± 400 nM
same,apparent K (half saturation),Pcf1 WT;Pcf2;Pcf3,700 ± 100 nM
same,apparent K (half saturation),Pcf1_KER,1100 ± 200 nM
same,apparent K (half saturation),Pcf1_KER-PIP,1900 ± 300 nM
